# Data from patent US9012186B2, “Hemicellulose-degrading enzymes” (The Board of Trustees of the University of Illinois, priority 2009, dated 2015).
# Assays:
# Format in all cases: biochemical, Prevotella bryantii
# [1] = substrate: O=[N+]([O-])c1ccc(O[C@@H]2OC[C@@H](O)[C@H](O)[C@H]2O)cc1; assay: Steady state kinetics of pNP substrate hydrolysis, Pb911 WT; details: other: Pb911 WT, pNP assay per Example 2 (sodium citrate, pH 5.5, 37° C.)
# Procedure: (§1) Enzyme-catalyzed hydrolysis of para-nitrophenyl (pNP)-linked monosaccharide substrates was assayed using a thermostated Synergy II multi-mode microplate reader from BioTek Instruments Inc. (Winooski, Vt.). A library of pNP substrates were screened for activity including: pNP-α-L-arabinopyranoside, pNP-α-L-arabinofuranoside, pNP-β-D-fucopyranoside, pNP-α-L-fucopyranoside, pNP-α-D-galactopyranoside, pNP-β-D-galactopyranoside, pNP-α-D-glucopyranoside, pNP-β-D-glucopyranoside, pNP-β-D-maltopyranoside, pNP-α-D-maltopyranoside, pNP-α-D-mannopyranoside, pNP-β-D-mannopyranoside, pNP-α-L-rhamnopyranoside, pNP-β-D-xylopyranoside, pNP-β-D-cellobioside. The substrates (1 mM) in citrate buffer (100 μL; 50 mM sodium citrate, 150 mM NaCl, pH 5.5) were incubated at 37° C. in the presence or absence of Pb886 (0.2 μM) for 30 min, and the level of pNP release was determined by continuously monitoring the absorbance at 400 nm. The pathlength correction feature of the instrument was employed to convert the absorbance values recorded to correspond to a 1 cm pathlength. The extinction coefficient for pNP at pH 5.5 and a wavelength of 400 nm was measured as 0.673 mM^−1cm^−1.
# (§2) FIG. 4c illustrates the kinetics of pNP substrate hydrolysis. The activity of Pb886 was verified with para-nitrophenyl derivatives of xylose and arabinose as indicated in the x-axes. These substrates are artificial substrates for the enzyme. Kinetic studies of Pb886 were performed using a thermostated Synergy II multi-mode microplate reader from BioTek Instruments Inc. (Winooski, Vt.). pNP-β-D-Xylopyranoside (0-46.25 mM) or pNP-α-L-arabinofuranoside (0-25 mM) were incubated in a citrate reaction buffer (100 μL; 50 mM sodium citrate, 150 mM NaCl, pH 5.5) at 37° C. in a 96-well flat bottom microtiter plate, and reactions were initiated by the addition of Pb886 (0.2 μM). Hydrolysis of pNP-β-D-xylopyranoside and pNP-α-L-arabinofuranoside were continuously monitored by recording the UV signal at 400 nm. Initial rate data were then plotted against the substrate concentration, and kinetic values were estimated by applying a nonlinear curve fit using GraphPad Prism v5.02 from GraphPad Software (San Diego, Calif.). The extinction coefficient for para-nitrophenol at pH 5.5 and a wavelength of 400 nm was measured as 0.673 mM^−1cm^−1.
# (§3) Pb911 protein was expressed and purified according to the methods described in Example 1. […] The activity of Pb911 on pNP substrates was measured according to the methods described in Example 2.
# [2] = substrate: O=[N+]([O-])c1ccc(O[C@@H]2O[C@H](CO)[C@@H](O)[C@H](O)[C@H]2O)cc1; assay: as above; details: other: Pb911 WT, pNP assay per Example 2 (sodium citrate, pH 5.5, 37° C.)
# Procedure: as §1, §2, §3
# [3] = substrate: O=[N+]([O-])c1ccc(O[C@@H]2OC[C@@H](O)[C@H](O)[C@H]2O)cc1; assay: Steady state kinetics of pNP substrate hydrolysis, Pb911 E115D; details: other: Pb911 E115D, pNP assay per Example 2 (sodium citrate, pH 5.5, 37° C.)
# Procedure: as §1, §2, §3
# [4] = substrate: O=[N+]([O-])c1ccc(O[C@@H]2O[C@H](CO)[C@@H](O)[C@H](O)[C@H]2O)cc1; assay: as above; details: other: Pb911 E115D, pNP assay per Example 2 (sodium citrate, pH 5.5, 37° C.)
# Procedure: as §1, §2, §3
# [5] = substrate: O=[N+]([O-])c1ccc(O[C@@H]2OC[C@@H](O)[C@H](O)[C@H]2O)cc1; assay: Steady state kinetics of pNP substrate hydrolysis, Pb911 E115A; details: other: Pb911 E115A, pNP assay per Example 2 (sodium citrate, pH 5.5, 37° C.)
# Procedure: as §1, §2, §3
# [6] = substrate: O=[N+]([O-])c1ccc(O[C@@H]2O[C@H](CO)[C@@H](O)[C@H](O)[C@H]2O)cc1; assay: as above; details: other: Pb911 E115A, pNP assay per Example 2 (sodium citrate, pH 5.5, 37° C.)
# Procedure: as §1, §2, §3
protein,measurement,setting,value
"Prevotella bryantii β-xylosidase/β-glucosidase Pb911 (alternatively named Pb2369), wild type, SEQ ID NO: 6 (Segatella baroniae B14) (protein) QTILINQQVDALYDRMSQEERINQLRSGYMDDLFDEQGNLDTVKCKELIPFGIGHFSQYASQKPLDANILRDRVAAVQDWLIHHTPNGIPALFHEEVLSGVNTKDATIYPQQIGQACSFNPELAERKTLQTGIDMRKMGGVLSLSPMVDVCRNPSFNRLEESYGEDGYLSAVMGTAFVKGLQQGDLTKGVGACSKHYLGYGGGGDAKEKEMMEEILLPHETMIRLAGSKALMPGYHAVHGTNCVANHEILTDILRGYLGFDGMVVSDYTAIDQIPGLDTPLQKATAAINAGNDVDFPHGANYKFLQEGLDKGMVKSEAFERAVKDVLRHKYRQGLFDKNAYLYSKDPIQLDSKEERQTAYDIATQSVVLLENKGILPLRGKQNIFVTGPNANTMWAMCGDYSFPAMTYFWKKVTEDLDHPHIVKLLEGMKDRKPAGINISYSRGCDWTDTIETKYAVSGDERAWEYEVLHRKVDSGEKADETEALAMAKEADVIIAAVGENVMLCGENRDRQGLCLPGHQEQYVERLLATGKPVVLVVFGGRAQVISNIANRCAAVIQAWYPGEEGGHAVADILYGNVSPSAKLSVSYPNVELNEPICYNYSAKQDSRVAWPFGYGLSYTTFDYSNLEVPTEVKTSDESLHIAFEVANTGKMDADEIAQVYLSPTQENQNIRPIQLQGFARISLKAGERKKVKVKLYTEQFGYYSNNGKRQWNIAPGTFTVKIGASSQDIKLQKNITVKGDIVVKPLRDFYFSEVIK",Km,[1],8.4 ± 1 mM
same,kcat,[1],250 ± 10 s⁻¹
same,kcat/Km,[1],30 ± 4 s⁻¹ mM⁻¹
same,Km,[2],22 ± 1 mM
same,kcat,[2],19 ± 0.6 s⁻¹
same,kcat/Km,[2],0.86 ± 0.05 s⁻¹ mM⁻¹
"Prevotella bryantii β-xylosidase/β-glucosidase Pb911 (alternatively named Pb2369, wild type SEQ ID NO: 6) variant E115D (Segatella baroniae B14; E115D) (protein) QTILINQQVDALYDRMSQEERINQLRSGYMDDLFDEQGNLDTVKCKELIPFGIGHFSQYASQKPLDANILRDRVAAVQDWLIHHTPNGIPALFHEDVLSGVNTKDATIYPQQIGQACSFNPELAERKTLQTGIDMRKMGGVLSLSPMVDVCRNPSFNRLEESYGEDGYLSAVMGTAFVKGLQQGDLTKGVGACSKHYLGYGGGGDAKEKEMMEEILLPHETMIRLAGSKALMPGYHAVHGTNCVANHEILTDILRGYLGFDGMVVSDYTAIDQIPGLDTPLQKATAAINAGNDVDFPHGANYKFLQEGLDKGMVKSEAFERAVKDVLRHKYRQGLFDKNAYLYSKDPIQLDSKEERQTAYDIATQSVVLLENKGILPLRGKQNIFVTGPNANTMWAMCGDYSFPAMTYFWKKVTEDLDHPHIVKLLEGMKDRKPAGINISYSRGCDWTDTIETKYAVSGDERAWEYEVLHRKVDSGEKADETEALAMAKEADVIIAAVGENVMLCGENRDRQGLCLPGHQEQYVERLLATGKPVVLVVFGGRAQVISNIANRCAAVIQAWYPGEEGGHAVADILYGNVSPSAKLSVSYPNVELNEPICYNYSAKQDSRVAWPFGYGLSYTTFDYSNLEVPTEVKTSDESLHIAFEVANTGKMDADEIAQVYLSPTQENQNIRPIQLQGFARISLKAGERKKVKVKLYTEQFGYYSNNGKRQWNIAPGTFTVKIGASSQDIKLQKNITVKGDIVVKPLRDFYFSEVIK",Km,[3],39 ± 4 mM
same,kcat,[3],87 ± 5 s⁻¹
same,kcat/Km,[3],2.2 ± 0.2 s⁻¹ mM⁻¹
same,Km,[4],17 ± 1 mM
same,kcat,[4],16 ± 0.4 s⁻¹
same,kcat/Km,[4],0.94 ± 0.06 s⁻¹ mM⁻¹
"Prevotella bryantii β-xylosidase/β-glucosidase Pb911 (alternatively named Pb2369, wild type SEQ ID NO: 6) variant E115A (Segatella baroniae B14; E115A) (protein) QTILINQQVDALYDRMSQEERINQLRSGYMDDLFDEQGNLDTVKCKELIPFGIGHFSQYASQKPLDANILRDRVAAVQDWLIHHTPNGIPALFHEAVLSGVNTKDATIYPQQIGQACSFNPELAERKTLQTGIDMRKMGGVLSLSPMVDVCRNPSFNRLEESYGEDGYLSAVMGTAFVKGLQQGDLTKGVGACSKHYLGYGGGGDAKEKEMMEEILLPHETMIRLAGSKALMPGYHAVHGTNCVANHEILTDILRGYLGFDGMVVSDYTAIDQIPGLDTPLQKATAAINAGNDVDFPHGANYKFLQEGLDKGMVKSEAFERAVKDVLRHKYRQGLFDKNAYLYSKDPIQLDSKEERQTAYDIATQSVVLLENKGILPLRGKQNIFVTGPNANTMWAMCGDYSFPAMTYFWKKVTEDLDHPHIVKLLEGMKDRKPAGINISYSRGCDWTDTIETKYAVSGDERAWEYEVLHRKVDSGEKADETEALAMAKEADVIIAAVGENVMLCGENRDRQGLCLPGHQEQYVERLLATGKPVVLVVFGGRAQVISNIANRCAAVIQAWYPGEEGGHAVADILYGNVSPSAKLSVSYPNVELNEPICYNYSAKQDSRVAWPFGYGLSYTTFDYSNLEVPTEVKTSDESLHIAFEVANTGKMDADEIAQVYLSPTQENQNIRPIQLQGFARISLKAGERKKVKVKLYTEQFGYYSNNGKRQWNIAPGTFTVKIGASSQDIKLQKNITVKGDIVVKPLRDFYFSEVIK",Km,[5],28 ± 3 mM
same,kcat,[5],0.35 ± 0.02 s⁻¹
same,kcat/Km,[5],0.013 ± 0.002 s⁻¹ mM⁻¹
same,Km,[6],39 ± 4 mM
same,kcat,[6],0.087 ± 0.005 s⁻¹
same,kcat/Km,[6],0.0022 ± 0.0003 s⁻¹ mM⁻¹
